Data on 16 sequences can be found in the DeepSol protein solubility set.

The data set can be described thus: soluble on expression in E. coli; label from the status in PepcDB or PDB records.
In the case of “MDVSAYPFFRRDMSWLSFNERVLMEAADRTLPVYDRIKFLSIFSSNLEEFYTVRVAYHQAVLQKRRDRSEAEEDSDADAHILQAIRETVIRQDELYYRIFYDQILPTLEEHGIRLRTHAPTHPDHKAYLRRFFHEEIFPLLYPMLLLPSKVRTFIRSGRVYLAVRLKEKETDEAYSYALLNVPTDGLPRFVELPRLQTDTFYYYSFLEDIIKEHLDVVFPGYEVMDSYSIKVSRDADLLLDAQRPEDLPGEIRKKVKTRKLGAPTRFMYDGRMPDEVLRYICSSCDIDPEEAIRSGNYVNLQDLAMLPNPFAPRLETLTPEPLLSKHLEQAPSLMEGIRRKDYLIHVPYYTYDYVVRLLMEAAISPDVSEIRLTQYRVAENSSIISALEAAAQSGKKVSVFVELKARFDEENNLRLSERMRRSGIRIVYSMPGLKVHAKTALILYHTPAGERPQGIALLSTGNFNETTARIYSDTTLMTANTDIVHDVYRLFRILDGDPEPARFSRLLVARYNMGEAITNLIEREIENVKRGKRGYMLLKMNGLQDKNVITQLYRASEAGVEIDLIVRGICCLVPDMPQSRNIRVTRLVDMYLEHSRIWCFHNGGKEEVFISSADWMKRNLYNRIETACPVLDPALRREIIDILEIQLRDNIKACRIDSSLNNIYKHNSDEKPVRAQAAIYRYLKGKEEATPAAK”, the “soluble on expression in E. coli” value is recorded as “not soluble”.
In the case of “MSLRYDRAGDQHYDVASALIKSMRGSDVDAALHYLARMVEAGEDPRFIARRIVIAAAEDVGMADPSALQTAVAAMHAVAQIGMPEARIVLAQAVVHNATAPKSNAAYAGINAAIADVRAGLGGSVPAHLRDAHYAGAGKLGHGKGYVYTHDVPAGVAEQQYAPDELVGKDYYVPTDRGFENQLRERLARLRRVLRGREGHHHHHH”, the “soluble on expression in E. coli” value is on record as “soluble”.
Regarding “MGSDKIHHHHHHSDLTSAQVAERLLVSQPKISLLENGHRAISPRDVRDLCELYGVTDRQVIDSLMRMARESGQQGWWNTYGNIPNSVYIGLETDASSIHTYEPMVIPDLLQTPAYAHAVIETTVPPIPAQQADARLKVRLRRQHRIYDPARPLRLWVVLDEPALHRVVGRPDIMREQLEHLNALSAEPHITVQVLPYTAGAHPGRQGQFSVLRFADSPEAGMVYLERFTSDLYLKKPSEVQQYSMMYDHLQARALSPEGTRDFVTDVTKSHIDVASRP”, the “soluble on expression in E. coli” value is given as “not soluble”.
The entry for “MDGALLIDKPKGITSTEVVERVKEKLKARKAGHTGTLDPIATGLLIILINKATRFSQFFIGMPKTYRFTVKFGAETDTYDAQGKVVETYEGELNCDKLKEVLNEFRGEILQTPPPFSAKKIKGRRAYELARKGKKVELKPVKITVYSLELLSCNPREKEAEFLAEISSGGYVRSLAYDIGKKLGIGGYMKELRRLKIDEISVEEAVSLEEFLSSENPEEYVLPVDTLFRVIPEVRLNTFEAGKILQGKRILIKNYDYEGLVKIYEDSKFIGIGELKGGVLSPKRLLV” is “soluble”; for “MVKVVGVRFKKAGKIYYFDPGDLEINLHENVIVETARGIEFGQVVVPNTEVSEEEIVAPLKKVIRVATEEDKAHHEDNIRREKEAFDICLQKIANHKLEMKLVGVEYTFDNNKILFYFTADGRVDFRELVKDLASVFRTRIELRQIGVRDEAKMMGGLGVCGRVLCCNSFLGEFQPVSIKMAKEQGLSLNPAKISGACGRLMCCLKYEQEAYEEIISRVPKEGAIVETPDGQGVVMSVSLLKELVKVKLDRENETDLKVYKASEVKVIKDVTREETEEEEIDLDELKQLED” it is “soluble”; for “MGSDKIHHHHHHMKDSALRVGIYQGPEIPQSFKVYAENVWRHLPKQDIATIPFKDRKDLPKSADVLWDIRSGGGNPPPDFLLEHPLPPLVVTVHGFAPLSLNGWEYFRTLKGLIMSGQYAKHKRERWREVRTAVGSIIAVSAFVKDEAIRFTGVPADRIHVCHHGVDGNAFTPGPDTESEPYFFHVSNDEPRKNVGAIVRAFRQLRRHCRVQLVLKLPEESARNYEKIEGIRVLSGFLTTEELVHLYRHALAFIFPSLYEGFGLPILEAMACGCPVITSNVSACREIAGEAARTINPRNESELLEAMEILYRNPEERRARTAMGLRRALGFSWEESAKCHARVLYMTADRNAPVASPD” it is “not soluble”.
The result for “MPVSSRRCGMITRREAERLCKSFLGDNTPPRLPDDFAFNVQHKCAWGCRGSFLPSRYNSSRAKCIKCSYCGMFFSPNKFIFHSHRITTNDRYVQPDAANFNSWRRHMSLSGNDYDEKIIHAWEDVKAMFNGGTRKRLVGSSINPRSPGSPTQSTAVSSGVGSSSCGSPTSFERDTNEVDGKSGSSLPQRSQIDSQYNYGTVAAAAAVVGVTAVAAATELCSGLHVAAEGPTLSAALRKKNPLEHHHHHH” reads “not soluble”; that for “MSLRSEVKAEDTWRLEDIFPSDEAWNKEFQAVKELIPNLSKYKGKLADSADHLYEALTYQDKVMERLGRLYTYAHMRSDQDTGNSFYQGLNDKAGNLYTQAESATAYLVPEILSIEEDKLQQFILEKEELKLYSHAIEEITKERPHVLSEKEEALLAEASEVLGSSSNTFSVLNNADITFPSIKDEDGNEKQITHGNFINFLESENREVRKNAFDAVYKTYGQYKNTMATTLSGTVKKDNFYARVKKYKSAREAALSNNSIPEEVYDNLVKTINKHLPLLHRYIALRKKVLELDEVHIYDLYTPLVKDAGMKVTYEEAKDYMLKGLAPLGEEYASILKEGLENRWVDVYENKGKRNGAYSSGAYGTNPYILMNWHNNVNNLFTLVHEFGHSVHSYYTRKHQPYPYGNYSIFVAEVASTTNEALLGEYLLNNLEDEKQRLYILNHMLEGFRGTVFRQTMFAEFEHLIHTKAQEGEPLTPELLTNVYYDLNKKYFGDGMVIDKEIGLEWSRIPHFYYNYYVYQYATGYSAAQALSSQILKEGKPAVDRYIDFLKAGSSQYPIDVLKKAGVDMTSPEPIEAACKMFEEKLDEMEELLMKVKEGHHHHHH”, “soluble”.
Regarding “MGSSHHHHHHGGTGENLYFQGGSGRRLPLFCRRPSRCCGATASGSGSSSAAVLAASAAPSVLVLAARGIATSGRVTNEDRRWWLVHLECAPDVTPGTFVSWLDCCGTHTTKKLIERNIWTIEQVAELDSDRVDELKYKEGCLKMDVVWEHARTIITPLKQREVSGGVESQLQSRILELRKKRELERQRELLARERATVSDKREETLRRLRESVAAKKAALRKKLDEQHGEATPAASESASTEAHRGTAEAAVEDEAVGNIVDRMSGGNPPRA”, the “soluble on expression in E. coli” value was “not soluble”.
The entry for “MKLSRISAINWNKIQDDKDLEVWNRLTSNFWLPEKVPLSNDIPAWQTLSAAEQQLTIRVFTGLTLLDTIQNIAGAPSLMADAITPHEEAVLSNISFMEAVHARSYSSIFSTLCQTKEVDAAYAWSEENPPLQRKAQIILAHYVSDEPLKKKIASVFLESFLFYSGFWLPMYFSSRGKLTNTADLIRLIIRDEAVHGYYIGYKYQIALQKLSAIEREELKLFALDLLMELYDNEIRYTEALYAETGWVNDVKAFLCYNANKALMNLGYEALFPPEMADVNPAILAALSPNADENHDFFSGSGSSYVMGKTVETEDEDWNF” is “soluble”; for “MSRGSGILPDESMFAEFKRQCLSTENWVNKYDKNDMEVWVEQAPLSASINNKGNYSKVHKIRCQINIKDVSAATMYDVLHDGQYRKTWDPTMLESFDIARLAHNADVGYYSWICPKPLKNRDVVTLRSWQASENEYVIINFSVKHPKYPPRKDLVRAVSLMTGYLIKPTGPQSCIFTYLSQADPKGSLPKWVVNKASQVLAPKVLRSAHKAGQNYPAWKAANSPDHKPWLYPIQSELAMMDPAELSIQRGDSLENVDESSTRDAQENEDSS” it is “not soluble”.
Turning to “MGSDKIHHHHHHMHTVAVERAARYDPSEVAEAMDRALASLGGMDTFVRPGERVLIKPNMLAAKAPERAVTTHPEVLRAVIRLVRKAGGIPLVGDSPGIGGFRAVAEKSGMAAVVREAGAELVPFDEAVAVPGSGLFRRMDVARPYLEADRLINLPKLKTHEMMTMTCAVKNLFGAVVGTAKAGWHLKAGADRELFARLLLEIYLLRPPDLTIVDGIVAMEGDGPGSGDPRPMGLILAGANAVAVDVVAAELAGIPKQLLWVERAAERLGIDGWDRSRIATVGLPPDDARVPDFRLPHLSDVQFGIPGFLKNRLRHHLTARPVPNPEGCHLCGACLDACPPRAISVRDGRLHFDYHACIRCFCCRELCPDGSLGVRDGVLLKLLKKFKE”, the “soluble on expression in E. coli” value is listed as “not soluble”.
As for “MAMHTWFECKIRYEKTMENGMQKKVTEPYLVDALSFTEAEARIIEEMTPFITGEFTVSDIKRANYSELFPSDEESADRWFKCKLIFITLDEKSGAEKKTSTQVLVQAADLRDAVKKLDEGMKGTMADYQIGMVSETPLMDVYPYSAGPNDKPEFDPSKA”, the “soluble on expression in E. coli” value is recorded as “not soluble”.
The entry for “GKSTTLFSRHTKAIVWGMQTRAVQGMLDFDYVCSRDEPSVAAMVYPFTGDHKQKFYWGHKEILIPVFKNMADAMRKHPEVDVLINFASLRSAYDSTMETMNYAQIRTIAIIAEGIPEALTRKLIKKADQKGVTIIGPATVGGIKPGCFKIGNTGGMLDNILASKLYRPGSVAYVSRSGGMSNELNNIISRTTDGVYEGVAIGGDRYPGSTFMDHVLRYQDTPGVKMIVVLGEIGGTEEYKICRGIKEGRLTKPIVCWCIGTCATMFSSEVQFGHAGACANQASETAVAKNQALKEAGVFVPRSFDELGEIIQSVYEDLVANGVIVPAQEVPPPTV” is “soluble”; for “MAPSTEDPDTVVEAQRRGSFSKKKNANGWNKVELVDQCAKQMGSEDKQPGGGDVKTENDPSKNGLGSATSNFIQSSVPPSHQTLSNPLQLSPPAEASVAQQSGASQVFPTFQAALGASSDELLQPNATSSSTSSSASTSSIVPVVKFTNQTAPNGSTVATSVGQNVRLTINGKRVGRPPGTFKRPQNNAANSSNSGNDSDMMGDHDLTCRWKSCNSSFQTLKALVDHVQESHVQSTEQEHHAWRCEWEGCDRNETFKALYMLIVHVRRHTGEKPNKCEYPGCGKEYSRLENLKTHRRTHTGEKPYKCEFADCEKAFSNASDRAKHQNRTHSNLKPYSCQIPQCTKSYTDPSSLRKHIKAVHGDDEYEKAKKSRPANYSNRRRPDHRLAPPTGAMSHPYLATPNSGASVVAHSSVHQQNFINMALAQHHHNAQRAQQLMAATGNVMPMMDPASAAAAAQAQAHHQAQAQMLQTHMMQQAQIQAAAQMQAQVQHQAAMQAHAMQQAQMVLQNNLLGAQSLLSPFSPLLPPSRAPNVMAMLQTPPTPTSVAPMFDIMTSRAPMAPVVSAPTAPAPLVPAPVPASPVFDELREQMREVEPLQQQQQQEPMDQDLQDIRVDGDSDDEDEEEPRTPSGALLLPRGGNNGDGGFGGSGSSRASSGSGTMELSAAPISQNGSRASGSGERGMRSFLIADILQLAADFQNERLLSDVLDLAIFDTRDVRSLHNIYQVYIRAHKAIPITRRPLDWNETHQLHNLYHDPRFNRAEHQDSPAIRDRDTRFWRTIAEANTMRQRQIEPVPLDDDDEGYFDEMVHRVQNGRLNEQFMEGFESDDDDGFEDEDDVPGLGIAVYRGRRRVRREALKQANLDIQEAETAGRNVGGFGDEEDRNNRGHDQDRSFLDHYYPPMVVVVETESPQIVRDQEMMRQFEEAKKNVETDEIKKRAEAMQFGTSSSHHHTKTLLIQRALFDKTSSVRRSLLQFITISVDQEELRQSCHATSAPQGAHVVHNVVDEFDSIMRAQEDSNNRILLSLDIPAPSAVTGVSGSITHADNSALQLQQEQPTSSFSSWFPEDDPIYALPPPPPPPAPPRRRRSADNKDDSENIPKKPRHQF” it is “not soluble”.
The result for “MGSDKIHHHHHHMTAIANRYEFVLLFDVENGNPNGDPDAGNMPRIDPETGHGLVTDVCLKRKIRNHVALTKEGAERFNIYIQEKAILNETHERAYTACDLKPEPKKLPKKVEDAKRVTDWMCTNFYDIRTFGAVMTTEVNCGQVRGPVQMAFARSVEPVVPQEVSITRMAVTTKAEAEKQQGDNRTMGRKHIVPYGLYVAHGFISAPLAEKTGFSDEDLTLFWDALVNMFEHDRSAARGLMSSRKLIVFKHQNRLGNAPAHKLFDLVKVSRAEGSSGPARSFADYAVTVGQAPEGVEVKEML” reads “not soluble”.
